Series [1] deals with T1, DOF3.4-ZF (Arabidopsis thaliana, UniProt Q39088 22-81).
T1 sequence: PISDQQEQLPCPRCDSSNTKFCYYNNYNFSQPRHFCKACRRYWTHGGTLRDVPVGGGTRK
The experiment in a line: MST.

For series [2], the target named is T2, DOF5.8-ZF (Arabidopsis thaliana, UniProt Q9FGD6 24-83).
T2 sequence: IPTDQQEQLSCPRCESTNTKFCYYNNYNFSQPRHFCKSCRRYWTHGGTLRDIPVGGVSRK
Put plainly: MST.

In series [3] the target is T1, DOF3.4-ZF. Put plainly: EMSA.
The target of series [4] is T2, DOF5.8-ZF. Put plainly: EMSA.

The source of these data is PMC6128974.

B1: Double-motif probe, fluorescein (dsDNA)
DNA 1: AAATAATCATAAAGTATTAAAGTAATATATAC
DNA 2: GTATATATTACTTTAATACTTTATGATTATTT
Usually Kd stands for the constant that tells how readily two partners part at equilibrium. Lower therefore signals higher affinity. B1: the Kd with DOF3.4-ZF [1] amounted to 2300 ± 1000 nM; with DOF5.8-ZF [2], 2500 ± 1000 nM.

B2: Control for single-motif probe (dsDNA)
DNA 1: AATCCAGCGATGTAGAGGAG
DNA 2: CTCCTCTACATCGCTGGATT
For B2, the binding result with DOF3.4-ZF [3] and with DOF5.8-ZF [4] was “no binding” each time.

B3: Control for double-motif probe (dsDNA)
DNA 1: AAATAATCATGCGATATTGCGAAATATATAAC
DNA 2: GTTATATATTTCGCAATATCGCATGATTATTT
Regarding B3, the binding result with DOF3.4-ZF [3] and in the series with DOF5.8-ZF [4] was “no binding” throughout.
